Here are results for 2 molecules from article PMC5431093, “A HAND to TBX5 Explains the Link Between Thalidomide and Cardiac Diseases” (Scientific Reports, 2017).

Experiment [1] addresses HA-tagged TBX5 (murine Tbx5 isoform A) (mouse) (UniProt P70326). Put plainly: co-IP; nuclear extracts of separately transfected HEK293 cells mixed (100 ug each), anti-HA on Protein A/G Dynabeads, 2 h, alone or with DMSO; blot with anti-Flag, re-blot with anti-HA.
Experiment [2] has the same target. The description is as above. The source holds these as a separate data set.
Experiment [3] addresses T1, HA-tagged TBX5 (murine Tbx5 isoform A) (mouse, UniProt P70326 1-518).
T1 sequence (looked up): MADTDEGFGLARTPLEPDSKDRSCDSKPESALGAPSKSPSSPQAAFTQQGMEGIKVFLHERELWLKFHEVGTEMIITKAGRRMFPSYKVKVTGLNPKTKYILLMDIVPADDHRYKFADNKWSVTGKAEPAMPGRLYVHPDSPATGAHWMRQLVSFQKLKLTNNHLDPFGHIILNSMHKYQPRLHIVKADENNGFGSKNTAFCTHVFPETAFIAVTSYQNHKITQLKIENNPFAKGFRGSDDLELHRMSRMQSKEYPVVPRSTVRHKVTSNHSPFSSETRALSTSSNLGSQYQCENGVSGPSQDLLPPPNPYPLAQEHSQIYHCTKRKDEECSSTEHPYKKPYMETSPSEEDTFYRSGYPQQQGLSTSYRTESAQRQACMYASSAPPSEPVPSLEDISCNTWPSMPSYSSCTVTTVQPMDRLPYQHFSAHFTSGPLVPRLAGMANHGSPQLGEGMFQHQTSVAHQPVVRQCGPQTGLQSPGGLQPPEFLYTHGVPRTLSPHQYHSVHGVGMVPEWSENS
Put plainly: cell-based or functional assay.

Read-outs that look alike come from different tables or passages of the source.

Consider “Flag-tagged HAND2 p.G202V variant (from UniProt Q61039 1-217) (natural protein)”, for which the percent inhibition of the co-precipitation against wild-type HAND2 is under 90% in experiment [1] and under 80% in experiment [2].

B1: Flag-tagged HAND2 wild type (natural protein, mouse, UniProt Q61039 1-217, looked up)
chain: MSLVGGFPHHPVVHHEGYPFAAAAAAAAAAAASRCSHEENPYFHGWLIGHPEMSPPDYSMALSYSPEYASGAAGLDHSHYGGVPPGAGPPGLGGPRPVKRRGTANRKERRRTQSINSAFAELRECIPNVPADTKLSKIKTLRLATSYIAYLMDLLAKDDQNGEAEAFKAEIKKTDVKEEKRKKELNEILKSTVSSNDKKTKGRTGWPQHVWALELKQ
With B1, the “synergistic activation of the rat NPPA promoter coupled to luciferase in HEK293 cells co-transfected with TBX5 and HAND2” value in experiment [3] is at most 22 fold.
